Test results published in article PMC4682114.

What was measured:
[1] = target: Histone H1.0 (human) (UniProt P07305); experiment: FRET; conditions: FRET/PIFE/EMSA: 5 nM nucleosomes, 10 mM Tris-HCl pH 8.0, 130 mM NaCl, 10% glycerol, 0.005% Tween20, 10 min at 20 C, EMSA on 4% polyacrylamide, 0.3x TTE
[2] = target: Histone H1.0 (human) (UniProt P07305); experiment: PIFE; conditions: AmC6dT at position 43; unlabelled human octamer; FRET/PIFE/EMSA: 5 nM nucleosomes, 10 mM Tris-HCl pH 8.0, 130 mM NaCl, 10% glycerol, 0.005% Tween20, 10 min at 20 C; EMSA on 4% polyacrylamide, 0.3x TTE
[3] = target: Histone H1.2 (human) (UniProt P16403); experiment: FRET; conditions: AmC6dT at position 43; human octamer H2A(K119C), H2B, H3(C110A), H4; FRET/PIFE/EMSA: 5 nM nucleosomes, 10 mM Tris-HCl pH 8.0, 130 mM NaCl, 10% glycerol, 0.005% Tween20, 10 min at 20 C; EMSA on 4% polyacrylamide, 0.3x TTE
[4] = target: Histone H1.x (human) (UniProt Q92522); experiment: FRET; conditions: AmC6dT at position 43; human octamer H2A(K119C), H2B, H3(C110A), H4; FRET/PIFE/EMSA: 5 nM nucleosomes, 10 mM Tris-HCl pH 8.0, 130 mM NaCl, 10% glycerol, 0.005% Tween20, 10 min at 20 C; EMSA on 4% polyacrylamide, 0.3x TTE
[5] = target: Cy3 only labelled unmodified nucleosome (Cy3-L DNA, unlabelled histone octamer) (human) (UniProt P0C0S8); experiment: other fluorescence titration; PIFE (protein-induced fluorescence enhancement) of Cy3 on the linker DNA of Cy3 only nucleosomes; 5 nM nucleosomes, 0-300 nM H1 and/or 0-1,000 nM Gal4, 10 mM Tris-HCl pH 8.0, 130 mM NaCl, 10% glycerol, 0.005% TWEEN20, 10 min at 20 C; Hill curve, S1/2
[6] = target: Cy3-Cy5 labelled H3K122ac nucleosome (Cy3-L DNA) (UniProt P0C0S8); experiment: other fluorescence titration; FRET efficiency between Cy3 on the DNA and Cy5 on the histone octamer (reports DNA wrapping) against H1 concentration; 5 nM nucleosomes, 0-300 nM H1, 10 mM Tris-HCl pH 8.0, 130 mM NaCl, 10% glycerol, 0.005% TWEEN20, 10 min at 20 C; Hill curve, S1/2; points of aggregated nucleosomes excluded
[7] = target: Cy3-Cy5 labelled H3K56Q nucleosome (Cy3-L DNA) (human) (UniProt P0C0S8); experiment: as above
[8] = target: Cy3-Cy5 labelled H3K56ac nucleosome (Cy3-L DNA) (UniProt P0C0S8); experiment: as above
[9] = target: Cy3-Cy5 labelled unmodified nucleosome (Cy3-L DNA, Cy5 on H2A K119C) (human) (UniProt P0C0S8); experiment: as above

With “AAGCTTGTCGACGAATTCAGATATAAGGAGGACACTGGGACATGCATCGGCTGGAGACCGGAGGGCTGCCCTCCGGTCAATTGGTCGTAGACAGCTCTAGCACCGCTTAAACGCACGTACGCGCTGTCCCCCGCGTTTTAACCGCCAAGGGGATTACTCCCTAGTCTCCAGGCACGTGTCAGATATATACATCCTGT (double strand) [Linker-L nucleosome]” the K half ([1]; AmC6dT at position 43, human octamer) was 12 nM.

“AAGCTTGTCGACGAATTCAGATATAAGGAGGACACTGGGACATGCATCGGCTGGAGACCGGAGGGCTGCCCTCCGGTCAATTGGTCGTAGACAGCTCTAGCACCGCTTAAACGCACGTACGCGCTGTCCCCCGCGTTTTAACCGCCAAGGGGATTACTCCCTAGTCTCCAGGCACGTGTCAGATATATACATCCTGTATAATGCATAGGGCAGTGAGTTGACGCTACAATCACGAATTCTGGATCCGATACGTAACGCGTCTGCAGCATGCG (double strand) [Cy3-L nucleosome, unmodified, Cy3 only]” was tested, and the K half [2] was 13 nM.

For “AAGCTTGTCGACGAATTCAGATATAAGGAGGACACTGGGACATGCATCGGCTGGAGACCGGAGGGCTGCCCTCCGGTCAATTGGTCGTAGACAGCTCTAGCACCGCTTAAACGCACGTACGCGCTGTCCCCCGCGTTTTAACCGCCAAGGGGATTACTCCCTAGTCTCCAGGCACGTGTCAGATATATACATCCTGTATAATGCATAGGGCAGTGAGTTGACGCTACAATCACGAATTCTGGATCCGATACGTAACGCGTCTGCAGCATGCG (double strand) [Cy3-L nucleosome, unmodified, Cy5-H2A(K119C)]”, the K half ([1]; AmC6dT at position 43, human octamer H2A(K119C), H2B, H3(C110A), H4) was 9 nM, the K half [3] was 6 nM and the K half [4] was 13 nM.

In the case of “CTGGAGACCGGAGGGCTGCCCTCCGGTCAATTGGTCGTAGACAGCTCTAGCACCGCTTAAACGCACGTACGCGCTGTCCCCCGCGTTTTAACCGCCAAGGGGATTACTCCCTAGTCTCCAGGCACGTGTCAGATATATACATCCTGTATAATGCATAGGGCAGTGAGTTGACGCTACAATCACGAATTCTGGATCCGATACGTAACGCGTCTGCAGCATGCG (double strand) [Linker-R nucleosome]”, the K half ([1]; smaller FRET change, 5' AminoC6, human octamer) is reported as 11 nM.

“human linker histone H1.0 (from UniProt P07305 1-194) (natural protein)” was tested, and the S1/2 [5] was 13 nM, the S1/2 [6] was 14 nM and the S1/2 [7] was 15 nM. The S1/2 [8] was 14 nM and the S1/2 [9] was 9 nM.

In the case of “human linker histone H1.2, 6xHis tagged (from UniProt P16403 1-213) (natural protein)”, the S1/2 [9] is reported as 6 nM.

“human linker histone H1.x, 6xHis tagged (from UniProt Q92522 1-213) (natural protein)” was tested, and the S1/2 [9] was 13 nM.
